Laboratory results reported in the supplement of paper PMC9112550, “Optimization of the antimicrobial peptide Bac7 by deep mutational scanning” (BMC Biology, 2022).

test system: Escherichia coli TOP10; experiment: shrunken log2 fold change of peptide-encoding DNA abundance (4.5 h post-induction vs induction); higher = less antimicrobial activity (less host growth inhibition); settings: time post-induction: 4.5 h; library: site-saturation at positions 5, 18, 19, 20
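Further: peptides expressed intracellularly from a pBAD plasmid library in pooled LB shake-flask culture, induced with 0.3% L-arabinose, DNA abundance read by NGS, three biological replicates, DESeq2 with apeglm shrinkage.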

Row | Sequence | shrunken log2 fold change
1 | RRIRGRPPRLPRPRPRPVGDPRP | 0.802
2 | RRIRVRPPRLPRPRPRPNTMPRP | -0.293
3 | RRIRPRPPRLPRPRPRPTLYPRP | 0.221
4 | RRIRHRPPRLPRPRPRPTLPPRP | -0.00384
5 | RRIRTRPPRLPRPRPRPRCIPRP | 0.0613
6 | RRIRDRPPRLPRPRPRPHFDPRP | 0.141
7 | RRIRHRPPRLPRPRPRPDPTPRP | -0.0262
8 | RRIRERPPRLPRPRPRPSDFPRP | -0.149
9 | RRIRMRPPRLPRPRPRPRYPPRP | 0.0438
10 | RRIRLRPPRLPRPRPRPMEHPRP | -0.00579
11 | RRIRKRPPRLPRPRPRPYKLPRP | -0.281
12 | RRIRWRPPRLPRPRPRPYNDPRP | -0.194
13 | RRIRFRPPRLPRPRPRPQWKPRP | -0.0239
14 | RRIRLRPPRLPRPRPRPDYAPRP | -0.224
15 | RRIRDRPPRLPRPRPRPSMQPRP | -0.157
16 | RRIRDRPPRLPRPRPRPNWCPRP | 0.0171
17 | RRIRIRPPRLPRPRPRPGFAPRP | 0.282
18 | RRIRPRPPRLPRPRPRPAENPRP | -0.197
19 | RRIRIRPPRLPRPRPRPLRKPRP | 0.00781
20 | RRIRSRPPRLPRPRPRPALEPRP | 0.407
21 | RRIRRRPPRLPRPRPRPCQPPRP | -0.0346
22 | RRIRARPPRLPRPRPRPYQGPRP | -0.135
23 | RRIRWRPPRLPRPRPRPMEHPRP | 0.107
24 | RRIRHRPPRLPRPRPRPDSKPRP | -0.362
25 | RRIRGRPPRLPRPRPRPHRTPRP | 0.271

Row | Sequence | shrunken log2 fold change
26 | RRIRQRPPRLPRPRPRPHDTPRP | -0.152
27 | RRIRNRPPRLPRPRPRPTLMPRP | 0.0843
28 | RRIRPRPPRLPRPRPRPNMQPRP | -0.313
29 | RRIRTRPPRLPRPRPRPRDPPRP | 0.047
30 | RRIRYRPPRLPRPRPRPYSWPRP | -0.156
31 | RRIRTRPPRLPRPRPRPPPSPRP | 1.16
32 | RRIRARPPRLPRPRPRPLCVPRP | 0.183
33 | RRIRGRPPRLPRPRPRPKERPRP | 0.00594
34 | RRIRGRPPRLPRPRPRPMLAPRP | 1.9
35 | RRIRGRPPRLPRPRPRPCDQPRP | -0.0239
36 | RRIRPRPPRLPRPRPRPECQPRP | 0.126
37 | RRIRTRPPRLPRPRPRPSQSPRP | -0.114
38 | RRIRDRPPRLPRPRPRPAKRPRP | -0.161
39 | RRIRWRPPRLPRPRPRPDDVPRP | 0.0399
40 | RRIRVRPPRLPRPRPRPIVGPRP | 0.0676
41 | RRIRHRPPRLPRPRPRPNCTPRP | -0.142
42 | RRIRGRPPRLPRPRPRPSSYPRP | -0.128
43 | RRIRMRPPRLPRPRPRPTLIPRP | 0.00162
44 | RRIRTRPPRLPRPRPRPDWIPRP | -0.0498
45 | RRIRRRPPRLPRPRPRPEHWPRP | 0.315
46 | RRIRDRPPRLPRPRPRPNPIPRP | -0.132
47 | RRIRQRPPRLPRPRPRPNYSPRP | -0.397
48 | RRIRERPPRLPRPRPRPTSTPRP | -0.319
49 | RRIRERPPRLPRPRPRPCMQPRP | -0.133
50 | RRIRRRPPRLPRPRPRPVVNPRP | 0.61

Row | Sequence | shrunken log2 fold change
51 | RRIRCRPPRLPRPRPRPYRRPRP | -0.344
52 | RRIRFRPPRLPRPRPRPVTDPRP | 0.00378
53 | RRIRRRPPRLPRPRPRPNNNPRP | -0.426
54 | RRIRQRPPRLPRPRPRPIPGPRP | -0.309
55 | RRIRRRPPRLPRPRPRPSFFPRP | 0.0112
56 | RRIRNRPPRLPRPRPRPDHWPRP | 0.0703
57 | RRIRCRPPRLPRPRPRPHHEPRP | -0.24
58 | RRIRIRPPRLPRPRPRPMWRPRP | 0.19
59 | RRIRFRPPRLPRPRPRPSRCPRP | -0.0633
60 | RRIRMRPPRLPRPRPRPTFDPRP | 0.558
61 | RRIRDRPPRLPRPRPRPAPWPRP | 0.226
62 | RRIRTRPPRLPRPRPRPPHCPRP | 0.474
63 | RRIRERPPRLPRPRPRPKPAPRP | 0.666
64 | RRIRRRPPRLPRPRPRPAMYPRP | -0.145
65 | RRIRARPPRLPRPRPRPGPAPRP | 0.873
66 | RRIRIRPPRLPRPRPRPIDGPRP | -0.248
67 | RRIRMRPPRLPRPRPRPEMKPRP | 2.5
68 | RRIRKRPPRLPRPRPRPSFGPRP | -0.324
69 | RRIRPRPPRLPRPRPRPYKEPRP | -0.382
70 | RRIRKRPPRLPRPRPRPWSSPRP | -0.136
71 | RRIRFRPPRLPRPRPRPRAQPRP | 0.191
72 | RRIRYRPPRLPRPRPRPGAGPRP | 0.0814
73 | RRIRDRPPRLPRPRPRPCYLPRP | -0.345
74 | RRIRDRPPRLPRPRPRPKAEPRP | -0.0211
75 | RRIRKRPPRLPRPRPRPTSVPRP | 0.0245

Row | Sequence | shrunken log2 fold change
76 | RRIRARPPRLPRPRPRPNIVPRP | 0.0466
77 | RRIRLRPPRLPRPRPRPQEIPRP | -0.0701
78 | RRIRGRPPRLPRPRPRPKMEPRP | 0.582
79 | RRIRYRPPRLPRPRPRPHNTPRP | -1.28
80 | RRIRYRPPRLPRPRPRPINIPRP | -1.21
81 | RRIRFRPPRLPRPRPRPCVHPRP | 0.00355
82 | RRIRDRPPRLPRPRPRPCMQPRP | -0.0524
83 | RRIRPRPPRLPRPRPRPQSVPRP | -0.0354
84 | RRIRKRPPRLPRPRPRPQNKPRP | 0.0275
85 | RRIRHRPPRLPRPRPRPGQWPRP | 0.318
86 | RRIRSRPPRLPRPRPRPKVQPRP | 0.293
87 | RRIRVRPPRLPRPRPRPWFCPRP | -0.299
88 | RRIRGRPPRLPRPRPRPRDNPRP | 0.0439
89 | RRIRCRPPRLPRPRPRPLTDPRP | -0.285
90 | RRIRGRPPRLPRPRPRPVRHPRP | 0.496
91 | RRIRSRPPRLPRPRPRPFFLPRP | -0.16
92 | RRIRHRPPRLPRPRPRPRDCPRP | -0.0851
93 | RRIRARPPRLPRPRPRPDQCPRP | 0.0213
94 | RRIRMRPPRLPRPRPRPLWIPRP | -0.00647
95 | RRIRPRPPRLPRPRPRPVRIPRP | 0.0103
96 | RRIRWRPPRLPRPRPRPNPIPRP | -0.149
97 | RRIRMRPPRLPRPRPRPSGSPRP | 0.133
98 | RRIRARPPRLPRPRPRPFLKPRP | -0.349
99 | RRIRRRPPRLPRPRPRPHMPPRP | -0.037
100 | RRIRSRPPRLPRPRPRPVCPPRP | 0.0554

Row | Sequence | shrunken log2 fold change
101 | RRIRFRPPRLPRPRPRPIRPPRP | -0.009
102 | RRIRHRPPRLPRPRPRPPAFPRP | 0.0237
103 | RRIRCRPPRLPRPRPRPNIHPRP | -0.607
104 | RRIRSRPPRLPRPRPRPIDYPRP | -0.0581
105 | RRIRDRPPRLPRPRPRPNPNPRP | -0.136
106 | RRIRERPPRLPRPRPRPLVGPRP | -0.198
107 | RRIRIRPPRLPRPRPRPTPRPRP | 0.466
108 | RRIRNRPPRLPRPRPRPPAKPRP | 0.521
109 | RRIRFRPPRLPRPRPRPSKGPRP | -0.115
110 | RRIRARPPRLPRPRPRPCLNPRP | -0.424
111 | RRIRHRPPRLPRPRPRPLWFPRP | -0.00823
112 | RRIRERPPRLPRPRPRPEEFPRP | -0.0217
113 | RRIRNRPPRLPRPRPRPMWPPRP | -0.00481
114 | RRIRKRPPRLPRPRPRPCPRPRP | 0.163
115 | RRIRYRPPRLPRPRPRPINFPRP | -0.299
116 | RRIRWRPPRLPRPRPRPRGGPRP | 0.984
117 | RRIRRRPPRLPRPRPRPCNEPRP | -0.0323
118 | RRIRSRPPRLPRPRPRPMFIPRP | -0.212
119 | RRIRTRPPRLPRPRPRPDGKPRP | -0.41
120 | RRIRQRPPRLPRPRPRPCHCPRP | -0.00822
121 | RRIRWRPPRLPRPRPRPNPQPRP | -0.0303
122 | RRIRPRPPRLPRPRPRPGNHPRP | -0.16
123 | RRIRYRPPRLPRPRPRPQTWPRP | -0.573
124 | RRIRYRPPRLPRPRPRPVSSPRP | -0.272
125 | RRIRCRPPRLPRPRPRPTKHPRP | 0.00206

Row | Sequence | shrunken log2 fold change
126 | RRIRCRPPRLPRPRPRPRKCPRP | 0.0179
127 | RRIRSRPPRLPRPRPRPILQPRP | 0.0824
128 | RRIRDRPPRLPRPRPRPPQDPRP | 0.811
129 | RRIRYRPPRLPRPRPRPLKEPRP | 0.0179
130 | RRIRPRPPRLPRPRPRPDCFPRP | 0.112
131 | RRIRERPPRLPRPRPRPCKVPRP | -0.00382
132 | RRIRSRPPRLPRPRPRPLQDPRP | -0.129
133 | RRIRNRPPRLPRPRPRPVSPPRP | -0.087
134 | RRIRYRPPRLPRPRPRPRWLPRP | -0.109
135 | RRIRLRPPRLPRPRPRPVDTPRP | -0.142
136 | RRIRSRPPRLPRPRPRPPLQPRP | 0.504
137 | RRIRIRPPRLPRPRPRPSLVPRP | 0.0916
138 | RRIRTRPPRLPRPRPRPHQLPRP | -0.313
139 | RRIRSRPPRLPRPRPRPIQQPRP | -0.0226
140 | RRIRDRPPRLPRPRPRPERRPRP | 0.0137
141 | RRIRLRPPRLPRPRPRPFVLPRP | -0.513
142 | RRIRKRPPRLPRPRPRPDQGPRP | -0.0154
143 | RRIRQRPPRLPRPRPRPNCAPRP | 0.00462
144 | RRIRFRPPRLPRPRPRPLPAPRP | 0.51
145 | RRIRMRPPRLPRPRPRPMMFPRP | 0.251
146 | RRIRFRPPRLPRPRPRPPTGPRP | 0.217
147 | RRIRCRPPRLPRPRPRPFSIPRP | -0.261
148 | RRIRMRPPRLPRPRPRPKFNPRP | -0.111
149 | RRIRQRPPRLPRPRPRPVDRPRP | -0.0864
150 | RRIRCRPPRLPRPRPRPIGNPRP | -0.221
